Reference: article PMC8691596 (PLoS ONE, 2021)
One block for each binder: values may come before it.

Molecular target: T1, anti-CD20 IgG1 L234S/L235T/G236R (human)
T1 construct: rituximab VH, as in m1; human IgG1 constant region; as the light chain of m1; also called 2–52; variant 52; source: HEK293, transient, purified (Protein A)
Assay: SPR; antibody captured by biotin-labelled anti-human κ light chain on streptavidin CM5; soluble Fcγ receptor injected at one concentration (12.5 nM to 18 μM); HBS-EP+ pH 7.4, 25°C; Biacore 8K
Details: both partners purified

- response: < 1 RU
B1: cynomolgus monkey FcγRIIa extracellular domain, C-terminal hexa-His (receptor)
chain: KAVLKLEPPWINVLREDSVTLTCGGAHSPDSDSTQWFHNGNLIPTHTQPSYRFKANNNDSGEYRCQTGRTSLSDPVHLTVLSEWLALQTTHLEFREGETIMLRCHSWKDKPLIKVAFFQNGKSKKFSHMNPNFSIPQANHSHSGDYHCTGNIGYTPYSSKPVTITVQGLSSLVPSVGSSSPTG

- response: < 1 RU
B2: cynomolgus monkey FcγRI extracellular domain, C-terminal hexa-His (receptor)
chain: QVDTTKAVITLQPPWVSVFQEETVTLQCEVPRLPGSSSTQWFLNGTATQTSTPSYRITSASVKDSGEYRCQRGPSGRSDPIQLEIHRDWLLLQVSSRVFTEGEPLALRCHAWKDKLVYNVLYYQNGKAFKFFYRNSQLTILKTNISHNGAYHCSGMGKHRYTSAGVSVTVKELFPAPVLNASVTSPLLEGNLVTLSCETKLLLQRPGLQLYFSFYMGSKTLRGRNTSSEYQILTARREDSGFYWCEATTEDGNVLKRSPELELQVLGLQLPTPVWLH

- response: < 1 RU
B3: cynomolgus monkey FcγRIIb extracellular domain, C-terminal hexa-His (receptor)
chain: TPAAPPKAVLKLEPPWINVLREDSVTLTCGGAHSPDSDSTQWFHNGNLIPTHTQPSYRFKANNNDSGEYRCQTGRTSLSDPVHLTVLSEWLALQTPHLEFREGETIMLRCHSWKDKPLIKVTFFQNGKSKKFSHMDPNFSIPQANHSHSGDYHCTGNIGYTPYSSKPVTITVQVP
